T1: SX28 chimera (Drosophila melanogaster / Sciara …, UniProt Q86QM9 1-240+=LE+P19339:293-354, internal_change)
T1 sequence: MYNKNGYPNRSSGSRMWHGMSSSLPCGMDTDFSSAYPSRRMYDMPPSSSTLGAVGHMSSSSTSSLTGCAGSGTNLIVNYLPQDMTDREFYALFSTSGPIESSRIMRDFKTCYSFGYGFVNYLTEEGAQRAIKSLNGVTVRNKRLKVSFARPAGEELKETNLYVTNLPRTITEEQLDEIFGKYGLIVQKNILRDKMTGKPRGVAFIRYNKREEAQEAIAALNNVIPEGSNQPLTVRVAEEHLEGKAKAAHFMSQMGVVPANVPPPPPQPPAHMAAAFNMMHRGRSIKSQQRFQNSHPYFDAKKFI

T2: SX64 chimera (Drosophila melanogaster / Sciara …, UniProt P19339 1-292+=LE+Q86QM9:241-287, internal_change)
T2 sequence: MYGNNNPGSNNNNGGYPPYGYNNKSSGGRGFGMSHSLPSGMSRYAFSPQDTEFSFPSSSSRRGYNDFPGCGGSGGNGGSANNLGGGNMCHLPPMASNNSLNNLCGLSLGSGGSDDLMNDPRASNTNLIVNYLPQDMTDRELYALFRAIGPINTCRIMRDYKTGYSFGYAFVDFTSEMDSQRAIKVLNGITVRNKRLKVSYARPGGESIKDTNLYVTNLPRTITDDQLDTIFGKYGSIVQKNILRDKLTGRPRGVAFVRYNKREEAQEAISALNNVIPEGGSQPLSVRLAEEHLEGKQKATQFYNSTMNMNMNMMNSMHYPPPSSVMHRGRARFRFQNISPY

T3: SX17 chimera (Drosophila melanogaster / Sciara …, UniProt Q86QM9 1-71+=R+P19339:125-354, internal_change)
T3 sequence: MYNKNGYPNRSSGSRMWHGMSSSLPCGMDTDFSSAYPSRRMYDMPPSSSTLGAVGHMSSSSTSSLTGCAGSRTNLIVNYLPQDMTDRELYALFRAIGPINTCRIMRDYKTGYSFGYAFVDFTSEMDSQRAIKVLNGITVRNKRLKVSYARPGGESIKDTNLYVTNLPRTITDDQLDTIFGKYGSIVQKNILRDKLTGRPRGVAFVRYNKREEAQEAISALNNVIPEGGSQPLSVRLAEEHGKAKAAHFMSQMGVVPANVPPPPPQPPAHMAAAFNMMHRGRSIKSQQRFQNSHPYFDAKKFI

T4: SX35 chimera (Drosophila melanogaster / Sciara …, UniProt P19339 1-123+=R+Q86QM9:73-287, internal_change)
T4 sequence: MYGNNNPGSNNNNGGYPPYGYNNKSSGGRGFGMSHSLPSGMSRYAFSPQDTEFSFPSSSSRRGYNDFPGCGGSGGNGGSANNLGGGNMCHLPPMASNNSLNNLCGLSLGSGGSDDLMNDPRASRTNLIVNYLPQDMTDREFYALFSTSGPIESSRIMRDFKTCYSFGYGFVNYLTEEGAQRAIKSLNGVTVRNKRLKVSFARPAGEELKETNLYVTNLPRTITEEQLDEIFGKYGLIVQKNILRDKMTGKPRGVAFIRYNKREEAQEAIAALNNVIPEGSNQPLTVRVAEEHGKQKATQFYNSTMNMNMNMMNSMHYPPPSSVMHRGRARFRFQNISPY

B1: double poly(U) SXL site (ssRNA)
RNA: CAUGAUUAUUUUUUUUUAUUUUUUUUCGGUGA
B2: single poly(U) SXL site (ssRNA)
RNA: ACAUAUUUUUUUUCACAGC

How the values were obtained:
Settings in all cases: protein: recombinant; tags: GST; label: fluorescein (RNA labelling mix)
SX28 chimera [1] = target: T1, SX28 chimera; assay: EMSA; Hill n=1; error 95% CI; 20 mM Hepes pH 8.0, 0.1 M KCl, 0.5 mM EDTA, 1 mM DTT, 0.05% NP40, 20% glycerol, 3 µg yeast tRNA; 5 min on ice, then 10 min at room temperature with RNA; 5% native PAGE, 0.25x TBE
SX64 chimera [2] = target: T2, SX64 chimera; assay: as above
SX17 chimera [3] = target: T3, SX17 chimera; assay: as above
SX35 chimera [4] = target: T4, SX35 chimera; assay: as above
SX28 chimera [5] = target: T1, SX28 chimera; assay: EMSA; apparent Kd, Hill fit; error 95% CI; 20 mM Hepes pH 8.0, 0.1 M KCl, 0.5 mM EDTA, 1 mM DTT, 0.05% NP40, 20% glycerol, 3 µg yeast tRNA; 5 min on ice, then 10 min at room temperature with RNA; 5% native PAGE, 0.25x TBE
SX64 chimera [6] = target: T2, SX64 chimera; assay: as above
SX17 chimera [7] = target: T3, SX17 chimera; assay: as above
SX35 chimera [8] = target: T4, SX35 chimera; assay: as above

Row | Binder | Kd (SX28 chimera [1]) [µM] | Kd (SX64 chimera [2]) [µM] | Kd (SX17 chimera [3]) [µM] | Kd (SX35 chimera [4]) [µM] | Kd (SX28 chimera [5]) [µM] | Kd (SX64 chimera [6]) [µM] | Kd (SX17 chimera [7]) [µM] | Kd (SX35 chimera [8]) [µM]
1 | B1 | 3.8 ± 0.5 | 2.3 ± 0.4 | 2.4 ± 0.5 | 0.9 ± 0.4 |  |  |  | 
2 | B2 |  |  |  |  | 230 ± 50 | 180 ± 20 | 350 ± 50 | 230 ± 40
